Data reported in paper PMC7083227 (Immunity, 2020).

Biological target: the molecule itself
Test: non-reducing and reducing SDS-PAGE after surface biotinylation and anti-HA immunoprecipitation; cells surface biotinylated, lysed in 1% NP40 ± 10 mM iodoacetamide, HA-tagged protein precipitated with anti-HA resin, blot with streptavidin-HRP; with or without BTN3A1, with or without Zol

B1: HA-tagged BTN2A1 (surface biotinylation experiment) (natural protein, human, UniProt Q7KYR7 29-527, looked up)
chain: QFIVVGPTDPILATVGENTTLRCHLSPEKNAEDMEVRWFRSQFSPAVFVYKGGRERTEEQMEEYRGRTTFVSKDISRGSVALVIHNITAQENGTYRCYFQEGRSYDEAILHLVVAGLGSKPLISMRGHEDGGIRLECISRGWYPKPLTVWRDPYGGVAPALKEVSMPDADGLFMVTTAVIIRDKSVRNMSCSINNTLLGQKKESVIFIPESFMPSVSPCAVALPIIVVILMIPIAVCIYWINKLQKEKKILSGEKEFERETREIALKELEKERVQKEEELQVKEKLQEELRWRRTFLHAVDVVLDPDTAHPDLFLSEDRRSVRRCPFRHLGESVPDNPERFDSQPCVLGRESFASGKHYWEVEVENVIEWTVGVCRDSVERKGEVLLIPQNGFWTLEMHKGQYRAVSSPDRILPLKESLCRVGVFLDYEAGDVSFYNMRDRSHIYTCPRSAFSVPVRPFFRLGCEDSPIFICPALTGANGVTVPEEGLTLHRVGTHQSL
modifications: surface lysines biotinylated with EZ-Link Sulfo NHS-LC-biotin
notes: Butyrophilin-2A1 (BTN2A1), human; also called CHO-cell expressed BTN2A1; cell surface BTN2A1
stoichiometry N: 2
